Test results reported in paper PMC8934182.

Tests used:
SARS-CoV-2 spike S1 = SARS-CoV-2 spike S1 (SARS-CoV-2, UniProt P0DTC2 13-685); assay: 5.0 ng/mL in EIS
[1] = molecular target: SARS-CoV nucleocapsid (N) protein (SARS-CoV, UniProt P59595 1-422); assay: competition
Interferon-gamma (IFN-γ) = Interferon-gamma (IFN-γ) (UniProt P01579 24-161); assay: competition

Measured: binding result

SARS-CoV nucleocapsid (N) protein, sequence (P59595 whole entry): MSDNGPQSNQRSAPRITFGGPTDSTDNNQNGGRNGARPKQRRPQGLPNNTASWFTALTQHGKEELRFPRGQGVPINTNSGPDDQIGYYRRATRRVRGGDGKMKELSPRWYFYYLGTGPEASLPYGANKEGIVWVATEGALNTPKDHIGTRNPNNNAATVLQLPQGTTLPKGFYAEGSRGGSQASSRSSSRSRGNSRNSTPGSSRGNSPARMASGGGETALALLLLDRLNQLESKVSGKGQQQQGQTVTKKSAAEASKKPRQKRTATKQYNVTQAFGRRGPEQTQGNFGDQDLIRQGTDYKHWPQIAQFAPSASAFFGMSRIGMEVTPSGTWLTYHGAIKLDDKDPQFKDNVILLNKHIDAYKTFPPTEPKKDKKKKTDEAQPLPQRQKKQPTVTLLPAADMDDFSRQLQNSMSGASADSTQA
Interferon-gamma (IFN-γ), sequence (P01579 24-161): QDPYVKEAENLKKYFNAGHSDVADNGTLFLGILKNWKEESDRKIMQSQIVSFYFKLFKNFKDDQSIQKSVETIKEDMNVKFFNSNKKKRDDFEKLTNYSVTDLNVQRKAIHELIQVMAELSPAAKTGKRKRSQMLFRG

B1: N48 aptamer (ssDNA)
DNA: GCTGGATGTCGCTTACGACAATATTCCTTAGGGGCACCGCTACATTGACACATCCAGC
no binding: all assays above
